# In patent publication US20100260668A1 (published 2010):
# Columns and labels:
# [1] = molecular target: T1, DLL4 (DLL4 ECD/His tag, R&D Systems 1506-D4-050) (UniProt Q9NR61 27-529); assay: Direct bind ELISA on DLL4; DLL4 domain C-term., HC long, LC short
# T1 construct: extracellular domain; not shown: His tag
# [2] = molecular target: T1, DLL4 (DLL4 ECD/His tag, R&D Systems …); assay: Direct bind ELISA on DLL4; DLL4 domain N-term., HC long, LC short
# [3] = molecular target: T1, DLL4 (DLL4 ECD/His tag, R&D Systems …); assay: Direct bind ELISA on DLL4; DLL4 domain N-term., HC short, LC long
Binder,EC50 [1] [nM],EC50 [3] [nM],other results
"DVD478 (VEGF/DLL4 DVD-Ig) (bispecific antibody, human IgG1, HC linker long, LC linker short; also called DVD478H; DVD478L) VH: EVQLVESGGGLVQPGGSLRLSCAASGFTISDYWIHWVRQAPGKGLEWVAGITPAGGYTYYADSVKGRFTISADTSKNTAYLQMNSLRAEDTAVYYCARFVFFLPYAMDYWGQGTLVTVSSASTKGPSVFPLAPEVQLVESGGGLVQPGGSLRLSCAASGFTFTDNWISWVRQAPGKGLEWVGYISPNSGFTYYADSVKGRFTISADTSKNTAYLQMNSLRAEDTAVYYCARDNFGGYFDYWGQGTLVTVSS VL: DIQMTQSPSSLSASVGDRVTITCRASQDVSTAVAWYQQKPGKAPKLLIYSASFLYSGVPSRFSGSGSGTDFTLTISSLQPEDFATYYCQQSYTTPPTFGQGTKVEIKRTVAAPDIQMTQSPSSLSASVGDRVTITCRASQDVSTAVAWYQQKPGKAPKLLIYSASFLYSGVPSRFSGSGSGTDFTLTISSLQPEDFATTYYCQQSYTGTVTFGQGTKVEIKR",2.53,,
"DVD526 (VEGF/DLL4 DVD-Ig) (bispecific antibody, human IgG1, HC linker long, LC linker short; also called DVD526H; DVD526L) VH: EVQLVESGGGLVQPGGSLRLSCAASGFTISDYWIHWVRQAPGKGLEWVAGITPAGGYTYYADSVKGRFTISADTSKNTAYLQMNSLRAEDTAVYYCARFVFFLPYAMDYWGQGTLVTVSSASTKGPSVFPLAPEVQLQQSGPELEKPGASVKISCKASGYSFTGYNMNWVKQSNGKSLEWIGNIDPYFGGTNYNQKFKGKATLTVDKSSSTAYMQLKSLTSEDSAVYYCARNYDYDGGCFDYWGQGTTLTVSS VL: DIQMTQSPSSLSASVGDRVTITCRASQDVSTAVAWYQQKPGKAPKLLIYSASFLYSGVPSRFSGSGSGTDFTLTISSLQPEDFATYYCQQSYTTPPTFGQGTKVEIKRTVAAPQAVVTQESALTTSPGETVTLTCRSSTGAVTTSNYANWVQEKPDHLFTGLIGGTNNRAPGVPARFSGSLIGDKAALTITGAQTEDEAIYFCALWYSNHWVFGGGTKLTVLG",1.57,,
"DVD501 (DLL4/VEGF DVD-Ig) (bispecific antibody, human IgG1, HC linker long, LC linker short; also called DVD501H; DVD501L) VH: EVQLQQSGPELVKPGASVKMSCKASGYTFTSYVINWVKQKPGQGLEWIGLINPYNDGTKYNEKFKVKATLTSDKSSSTAYMELSSLTSEDSAVYYCASYYYGSRYYFDYWGQGTTLTVSSASTKGPSVFPLAPEVQLVESGGGLVQPGGSLRLSCAASGFTISDYWIHWVRQAPGKGLEWVAGITPAGGYTYYADSVKGRFTISADTSKNTAYLQMNSLRAEDTAVYYCARFVFFLPYAMDYWGQGTLVTVSS VL: DIQMTQSSSYLSVSLGGRVTITCKASDHINNWLAWYQQKPGNAPRLLISGATSLETGVPSRFSGSGSGKDYTLSITSLQTEDVATYYCQQYWSIPLTFGAGTKLELKRTVAAPDIQMTQSPSSLSASVGDRVTITCRASQDVSTAVAWYQQKPGKAPKLLIYSASFLYSGVPSRFSGSGSGTDFTLTISSLQPEDFATYYCQQSYTTPPTFGQGTKVEIKR",,,EC50 [2]: 0.18 nM
"DVD461 (DLL4/VEGF DVD-Ig) (bispecific antibody, human IgG1, HC linker short, LC linker long; also called DVD461H; DVD461L) VH: QVQLVQSGAEVKKPGASVKISCKASGYSFTAYYIHWVKQAPGQGLEWIGYISSYNGATNYNQKFKGRVTFTTDTSTSTAYMELRSLRSDDTAVYYCARDYDYDVGMDYWGQGTLVTVSSASTKGPEVQLVESGGGLVQPGGSLRLSCAASGFTISDYWIHWVRQAPGKGLEWVAGITPAGGYTYYADSVKGRFTISADTSKNTAYLQMNSLRAEDTAVYYCARFVFFLPYAMDYWGQGTLVTVSS VL: DIVMTQSPDSLAVSLGERATISCRASESVDNYGISFMKWFQQKPGQPPKLLIYAASNQGSGVPDRFSGSGSGTDFTLTISSLQAEDVAVYYCQQSKEVPWTFGGGTKVEIKRTVAAPSVFIFPPDIQMTQSPSSLSASVGDRVTITCRASQDVSTAVAWYQQKPGKAPKLLIYSASFLYSGVPSRFSGSGSGTDFTLTISSLQPEDFATYYCQQSYTTPPTFGQGTKVEIKR",,0.52,
"DVD502 (VEGF/DLL4 DVD-Ig) (bispecific antibody, human IgG1, HC linker long, LC linker short; also called DVD502H; DVD502L) VH: EVQLVESGGGLVQPGGSLRLSCAASGFTISDYWIHWVRQAPGKGLEWVAGITPAGGYTYYADSVKGRFTISADTSKNTAYLQMNSLRAEDTAVYYCARFVFFLPYAMDYWGQGTLVTVSSASTKGPSVFPLAPEVQLQQSGPELVKPGASVKMSCKASGYTFTSYVINWVKQKPGQGLEWIGLINPYNDGTKYNEKFKVKATLTSDKSSSTAYMELSSLTSEDSAVYYCASYYYGSRYYFDYWGQGTTLTVSS VL: DIQMTQSPSSLSASVGDRVTITCRASQDVSTAVAWYQQKPGKAPKLLIYSASFLYSGVPSRFSGSGSGTDFTLTISSLQPEDFATYYCQQSYTTPPTFGQGTKVEIKRTVAAPDIQMTQSSSYLSVSLGGRVTITCKASDHINNWLAWYQQKPGNAPRLLISGATSLETGVPSRFSGSGSGKDYTLSITSLQTEDVATYYCQQYWSIPLTFGAGTKLELKR",3.17,,
"DVD483 (DLL4/VEGF DVD-Ig) (bispecific antibody, human IgG1, HC linker short, LC linker long; also called DVD483H; DVD483L) VH: EVQLVESGGGLVQPGGSLRLSCAASGFTFTDNWISWVRQAPGKGLEWVGYISPNSGFTYYADSVKGRFTISADTSKNTAYLQMNSLRAEDTAVYYCARDNFGGYFDYWGQGTLVTVSSASTKGPEVQLVESGGGLVQPGGSLRLSCAASGFTISDYWIHWVRQAPGKGLEWVAGITPAGGYTYYADSVKGRFTISADTSKNTAYLQMNSLRAEDTAVYYCARFVFFLPYAMDYWGQGTLVTVSS VL: DIQMTQSPSSLSASVGDRVTITCRASQDVSTAVAWYQQKPGKAPKLLIYSASFLYSGVPSRFSGSGSGTDFTLTISSLQPEDFATTYYCQQSYTGTVTFGQGTKVEIKRTVAAPSVFIFPPDIQMTQSPSSLSASVGDRVTITCRASQDVSTAVAWYQQKPGKAPKLLIYSASFLYSGVPSRFSGSGSGTDFTLTISSLQPEDFATYYCQQSYTTPPTFGQGTKVEIKR",,0.63,
"DVD456 (VEGF/DLL4 DVD-Ig) (bispecific antibody, human IgG1, HC linker long, LC linker short; also called DVD456H; DVD456L) VH: EVQLVESGGGLVQPGGSLRLSCAASGFTISDYWIHWVRQAPGKGLEWVAGITPAGGYTYYADSVKGRFTISADTSKNTAYLQMNSLRAEDTAVYYCARFVFFLPYAMDYWGQGTLVTVSSASTKGPSVFPLAPQVQLVQSGAEVKKPGASVKISCKASGYSFTAYYIHWVKQAPGQGLEWIGYISSYNGATNYNQKFKGRVTFTTDTSTSTAYMELRSLRSDDTAVYYCARDYDYDVGMDYWGQGTLVTVSS VL: DIQMTQSPSSLSASVGDRVTITCRASQDVSTAVAWYQQKPGKAPKLLIYSASFLYSGVPSRFSGSGSGTDFTLTISSLQPEDFATYYCQQSYTTPPTFGQGTKVEIKRTVAAPDIVMTQSPDSLAVSLGERATISCRASESVDNYGISFMKWFQQKPGQPPKLLIYAASNQGSGVPDRFSGSGSGTDFTLTISSLQAEDVAVYYCQQSKEVPWTFGGGTKVEIKR",2.48,,
"DVD531 (DLL4/VEGF DVD-Ig) (bispecific antibody, human IgG1, HC linker short, LC linker long; also called DVD531H; DVD531L) VH: EVQLQQSGPELEKPGASVKISCKASGYSFTGYNMNWVKQSNGKSLEWIGNIDPYFGGTNYNQKFKGKATLTVDKSSSTAYMQLKSLTSEDSAVYYCARNYDYDGGCFDYWGQGTTLTVSSASTKGPEVQLVESGGGLVQPGGSLRLSCAASGFTISDYWIHWVRQAPGKGLEWVAGITPAGGYTYYADSVKGRFTISADTSKNTAYLQMNSLRAEDTAVYYCARFVFFLPYAMDYWGQGTLVTVSS VL: QAVVTQESALTTSPGETVTLTCRSSTGAVTTSNYANWVQEKPDHLFTGLIGGTNNRAPGVPARFSGSLIGDKAALTITGAQTEDEAIYFCALWYSNHWVFGGGTKLTVLGQPKAAPSVTLFPPDIQMTQSPSSLSASVGDRVTITCRASQDVSTAVAWYQQKPGKAPKLLIYSASFLYSGVPSRFSGSGSGTDFTLTISSLQPEDFATYYCQQSYTTPPTFGQGTKVEIKR",,0.57,
